Experimental data taken from publication PMC11682927.

Target: His-BACH1-BTB (amino acids 7-128) (human) (UniProt O14867)
Assay: SEC-MALS

Tag-free FBXO22-SKP1 complex, sequence (Q8NEZ5 whole entry): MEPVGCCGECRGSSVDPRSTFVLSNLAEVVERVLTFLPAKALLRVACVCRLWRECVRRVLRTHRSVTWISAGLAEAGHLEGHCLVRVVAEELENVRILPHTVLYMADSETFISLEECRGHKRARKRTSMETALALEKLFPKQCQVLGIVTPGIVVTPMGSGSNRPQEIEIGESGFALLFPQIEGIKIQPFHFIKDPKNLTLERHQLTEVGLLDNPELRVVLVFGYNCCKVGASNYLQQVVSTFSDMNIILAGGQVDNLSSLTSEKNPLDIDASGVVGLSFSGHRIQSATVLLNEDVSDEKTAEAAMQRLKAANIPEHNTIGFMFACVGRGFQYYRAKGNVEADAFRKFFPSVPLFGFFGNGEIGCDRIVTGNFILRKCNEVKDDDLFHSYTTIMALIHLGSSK
Tag-free FBXO22-SKP1 complex, sequence (P63208 whole entry): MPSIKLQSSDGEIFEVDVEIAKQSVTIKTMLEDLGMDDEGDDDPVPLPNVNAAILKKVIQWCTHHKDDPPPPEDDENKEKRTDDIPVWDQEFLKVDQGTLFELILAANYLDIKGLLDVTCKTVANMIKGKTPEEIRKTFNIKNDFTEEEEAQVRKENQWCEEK
His-BACH1-BTB (amino acids 7-128) (human), sequence (O14867 7-128): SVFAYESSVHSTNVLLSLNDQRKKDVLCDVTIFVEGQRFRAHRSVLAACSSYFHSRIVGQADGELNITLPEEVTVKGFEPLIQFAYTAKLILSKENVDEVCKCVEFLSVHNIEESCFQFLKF

- stoichiometry N (FBXO22-SKP1 per BACH1 BTB dimer): 1
Substance: Tag-free FBXO22-SKP1 complex (from UniProt Q8NEZ5 1-403; P63208 1-163)
